Data as given in publication PMC7933954 (EMBO Molecular Medicine, 2021).

Biological target: T1, mouse DR5 (Mus musculus (4T1: BALB/c; MC38: …, UniProt Q9QZM4)
T1 construct: mouse DR5, endogenous on the surface of 4T1 and MC38 cells; also called muDR5; murine DR5; source: endogenous, on murine 4T1 and MC38 cells
Assay: flow cytometry on cells; antibody on murine 4T1 and MC38 cells, FACS histograms
Conditions: one partner purified

T1 sequence (Q9QZM4 53-381): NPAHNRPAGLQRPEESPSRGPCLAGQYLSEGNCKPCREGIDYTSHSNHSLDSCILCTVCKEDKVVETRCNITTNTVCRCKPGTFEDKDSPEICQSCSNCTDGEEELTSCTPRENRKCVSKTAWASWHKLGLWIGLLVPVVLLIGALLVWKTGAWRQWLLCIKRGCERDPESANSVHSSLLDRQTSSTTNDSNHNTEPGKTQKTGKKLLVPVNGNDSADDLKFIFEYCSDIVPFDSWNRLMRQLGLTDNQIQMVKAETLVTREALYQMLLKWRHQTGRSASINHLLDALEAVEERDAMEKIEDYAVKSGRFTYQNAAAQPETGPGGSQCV

B1: MD5‐1 (antibody, V domains shown)
VH: QIQLQESGPGLVKPAQSLSLTCSITGFPITAGGYWWTWIRQFPGQKLEWMGYIYSSGSTNYNPSIKSRISITRDTAKNQFFLQLNSVTTEEDTAIYYCARAGTSYSGFFDSWGQGTLVTVSS
VL: DIQVTQSPSLLSASFGDKVTINCLVTQDITYYLSWYQQKSGQPPTLLIYNGNSLQSGVPSRFSGQYSGRTFTLSLSSLEPEDAGTYYCLQHYSVPFTFGGGTRLEIK
notes: heavy chain of MD5‐1; light chain of MD5‐1; for efficacy studies it is said to carry IgG1 KO‐Fc and S267E mutations; also called anti‐mouse DR5 antibody (MD5‐1); murine DR5 agonist MD5‐1
Does B1 bind?
Result: binds
